Among the data in the RNAGym collection of RNA variant scans (doi:10.7554/elife.80360) are self-cleavage values, retold here.

B1: HDV Ribozyme (parent)
chain: GGCCGGCAUGGUCCCAGCCUCCUCGCUGGCGCCGGCUGGGCAACAUUCCGAGGGGACCGUCCCCUCGGUAAUGGCGAAUGGGACCCA

The variants in the data set derive from B1. As to the kind of experiment: self-cleavage, relative activity (ratio to wild type); higher = more cleavage; co-transcriptional.
In the case of GGCCGGCAUGGUCCCAGCCUCCUCGCUGGCGCCGGCUGGGCAACAGGCCGAGGGGACCGUCCCCUCGGUAAUGGCGAAUGGGACCCA [U46G U47G], the self-cleavage stood at 0.262.

For GGCCGGCAUGGUCCCAGCCUCCUCGCUGGCGCCGGCUGGACAACAUUCCGAGGCGACCGUCCCCUCGGUAAUGGCGAAUGGGACCCA [G40A G54C], the self-cleavage was found to be 0.926.

For GACCGGCAUGGUCCCAGCCUCCUCGCUCGCGCCGGCUGGGCAACAUUCCGAGGGGACCGUCCCCUCGGUAAUGGCGAAUGGGACCCA [G2A G28C], the self-cleavage was found to be 0.0415.

For the variant GGCCGGCAUGGUCCCAGCCUCCUCGCUGGCGCCGGCUGGGCAACAUUCCGAGGGGACCGUCCCCUCGGUAAGGGCGAAAGGGACCCA [U72G U79A], the self-cleavage is 0.534.

GGCCGGCAUGGUCCCAGUCUCCUCGCUGGCGCCGGCUGGGCAACAUUCCGAGGGGGCCGUCCCCUCGGUAAUGGCGAAUGGGACCCA [C18U A56G]: the self-cleavage was 0.719.

Take GGCCGACAUGGUCCCAGCCUCCUCGCUGGCGCCGGCUGGGCAACAUUCCGAAGGGACCGUCCCCUCGGUAAUGGCGAAUGGGACCCA [G6A G52A]: the self-cleavage is 0.831.

In the case of GGCCGGCAUGGUCCCAGCCUCCUCGCUGGCGCCGGCUGGGCAACAUUCCGAGGGGUCCGUCCCCUCGGUAAUGCCGAAUGGGACCCA [A56U G74C], the self-cleavage was 0.317.

With GGCCGGCAUGGUCCCAGCCUCCUCGCUGGCGCCGGCUGGGCCACAUUCCGAGGGGACCGUCCCCUCUGUAAUGGCGAAUGGGACCCA [A42C G67U], the self-cleavage is 0.261.

Take GGCCGGCAUGGUGCCAGCCUCCUCGCUGGCGCCGGCUGGGCAACAUUCCGAGCGGACCGUCCCCUCGGUAAUGGCGAAUGGGACCCA [C13G G53C]: the self-cleavage was 0.123.

As for GGCCGGCAUGGUCCCAGCCUCCUCGCUGGCGCCGGCUGGGCAACAUUCCGAGGGGUCCGUCCCCUCGGUAAAGGCGAAUGGGACCCA [A56U U72A], the self-cleavage was 0.764.

GGCCGGCAUGCUCCCAGCCUCCUCGCUGGCGCCGACUGGGCAACAUUCCGAGGGGACCGUCCCCUCGGUAAUGGCGAAUGGGACCCA [G11C G35A]: the self-cleavage is 0.125.

With GGCCGGCAUGGUCCCAGCCUCCUCGCUGGUGCCGGCUGGGCAACAUUCCGAGGGGACCGUCCCCUCGGUAAUGGUGAAUGGGACCCA [C30U C75U], the self-cleavage stood at 0.157.

Turning to GGCCGGCAUGGUCCCAGCCUCCUCGCUGGCGCCGGCUUGGCAACAUUCCGAGGGGACCGUCCCCUCGCUAAUGGCGAAUGGGACCCA [G38U G68C], the self-cleavage was found to be 0.245.

Regarding GGCCGGCAUGGUCCCAGCCUCCUCGCUGGCGCCGGCUGAGCAACAUUCCGAGGGGACGGUCCCCUCGGUAAUGGCGAAUGGGACCCA [G39A C58G], the self-cleavage is 0.363.

As for GGCCGGCAUGGCCCCAGCCUCCUCGCUGGCGCCGGCUGGGCAACAUUCCGAGGGGACCGUGCCCUCGGUAAUGGCGAAUGGGACCCA [U12C C61G], the self-cleavage was found to be 0.32.

Take GGCCGGCAUGGUCCCAGCCUCCUCGCUGGCGCCGGCUGGGCAACAUUCCGAGGGGACCGUCCCCUCGCUAAUGGCGAAGGGGACCCA [G68C U79G]: the self-cleavage was found to be 0.516.

In the case of GGCCGGCAUGGUCCCAGCCUUCUCGCUGGCGCCGGCUGGGCAACCUUCCGAGGGGACCGUCCCCUCGGUAAUGGCGAAUGGGACCCA [C21U A45C], the self-cleavage came to 0.0256.

For GGCCGGCAUGGUCCCAGCCUCCUCGCUGGCGCCGGCUGGGCAACAUUCCGAGGGGACCGUCCCCUCGGUCAUGGCGAAUGGGACCUA [A70C C86U], the self-cleavage amounted to 0.852.

Regarding GGCCGGCAUGGUCCCAGCCUCCUUGCUGGCGCCGGCUGGGCAACAUUCCGAGGGGACCGUCCCCUCGGUACUGGCGAAUGGGACCCA [C24U A71C], the self-cleavage came to 0.453.

As for GGCCGGCAUGGUCCCAGCCUCCUCGCUGGCGCCGGCUGGGCAGCAUUCCGAGGGGACCGUCCCCUCGGUAAUGGCGAAUGGGCCCCA [A43G A83C], the self-cleavage was 0.268.

As to GGCCGGCAUGGUCCCAGCCUCCUCGCUGGCGCCGGCUGGGCAACCUUCAGAGGGGACCGUCCCCUCGGUAAUGGCGAAUGGGACCCA [A45C C49A], the self-cleavage is 0.72.

Turning to GGCCAGCAUGGUCCCAGCCUCCUCGCUGGCGCCGGCUGGGCAACAUUCCGAGGGGACCGUCCACUCGGUAAUGGCGAAUGGGACCCA [G5A C63A], the self-cleavage is 0.277.

With GGCCGGCAUGGUCCCAGCCUCCUCGCUGGCGCCGGCUGGGCAACAUCCCGAGGGGACCGUCCCCUCGGUAAUGGCGCAUGGGACCCA [U47C A77C], the self-cleavage came out at 0.317.

Consider GGCCGUCAUGGUCCCAGCCUCCUCGCUGGCGCCGGCUGGGCAACAUUCCGAGGGGACCGUCCCCUCGGUAAUGGCGAAUGGGACCCG [G6U A87G], for which the self-cleavage is 0.377.

With UGCCGGCAUGGUCCCAGCCUCCUCGCUGGCGCCGGCUGGGCAACAUUCCGAGGGGACCGUCCCCUCGGUAAUGGCGAACGGGACCCA [G1U U79C], the self-cleavage worked out at 0.332.

As for GGCCCGCAUGGUCCCAGCCUCCUCGCUGGCGCCGGCUGGGCAACAUUCCGACGGGACCGUCCCCUCGGUAAUGGCGAAUGGGACCCA [G5C G52C], the self-cleavage worked out at 0.095.

GGCCGGCAUGGUCCCAGCCUCCUCGCUGGCGCCGGCUGGGCAACAUUCGGAGGGGACCGUCCACUCGGUAAUGGCGAAUGGGACCCA [C49G C63A]: the self-cleavage was determined as 0.489.

On to GGCCGGCAUGGUCCCAGCCUCCUCGCUGGCGGCGGCUGGGCAACGUUCCGAGGGGACCGUCCCCUCGGUAAUGGCGAAUGGGACCCA [C32G A45G], for which the self-cleavage is 0.0811.

On to GGCCGGCAUGGUCCCAGCCUCCUCGCUGGCGCCGGCUGGGCAACAGUCCCAGGGGACCGUCCCCUCGGUAAUGGCGAAUGGGACCCA [U46G G50C], for which the self-cleavage is 0.429.

Take GGCCGGCAUGUUCCCAGCCUCCUCGCUGGCGCCGGCUGGGCAACAUUCCGAGGGGACCGUCCCCUCGGUAAUGGUGAAUGGGACCCA [G11U C75U]: the self-cleavage worked out at 0.0422.

Take GGCCGGCAUGGUCCCAGCCUCAUCGCUGGCGCCGGCUGGGCAACAUUCCGAGGGGACCGUCCCCUCGGUAAUGGCGAAUGAGACCCA [C22A G81A]: the self-cleavage stood at 0.205.

As for GGCCGGCAUGGUCCCAGCCUCCUCUCUGGCGCCGGCUGGGCAACAUUCCGAGGGGACCGUCCCCUCGGUAAUGGCAAAUGGGACCCA [G25U G76A], the self-cleavage was found to be 0.
